This data set has as its system Bacillus subtilis. In words: cleaved RNA product abundance (RNA/gDNA barcode ratio) relative to median wild-type variant (ratio to wild type); higher = more accumulation of the downstream cleavage product. Conditions: cleavage site: cggR-gapA (positions -7 to +36 mutated). The essentials:
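Cleaved product abundance for each construct is its RNA-to-gDNA barcode ratio, scaled to the median construct carrying the unmutated site. Cleaved RNA was isolated on a gel, reverse transcribed and barcode-sequenced, with genomic DNA barcodes sequenced alongside and UMIs collapsed. The reporters were truncated aprE or tetM mRNAs with barcoded, mutagenized RNase Y cleavage-site windows integrated into the B. subtilis chromosome, and cultures grew in LB at 37°C from OD600 0.0003 to 0.3.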

Where [1] appears, read: experiment (reporter, strain, medium): exp 4a: truncated aprE reporter, strain BJT201 with 2% xylose (RNase J1 expressed).
[2] abbreviates: experiment (reporter, strain, medium): exp 2b: truncated aprE reporter, strain BJT200.

With “ACAGACGAAGGAGCCGCAAAGACGTTATTAAGGGATGATTAATCCCTCAATATAAATATCTCTCACTTATTTAAA”, the “cleaved RNA product abundance” value under setting [1] was 0.779.

Take “ACAGACGAAGGAGCCGCAAAGACGTTATTAAGGGATTAATAATCCCTCAATATAAATATCTCTCACTTATTTAAA”: the “cleaved RNA product abundance” value stood at 0.747 under setting [2] and 0.857 under setting [1].

Take “ACAGACGAAGGAGCCGCAAAGACGTTATTAAGGTATGAATAATCCCTCAATATAAATATCTCTCACTTATTTAAA”: the “cleaved RNA product abundance” value under setting [2] is 0.0832 and the “cleaved RNA product abundance” value under setting [1] came to 0.153.

Take “ACAGACGAAGGAGCCGCAAAGACGTTATTAATGGATGAATAATCCCTCAATATAAATATCTCTCACTTATTTAAA”: the “cleaved RNA product abundance” value by setting is: under setting [2], 0.115; under setting [1], 0.115.

Take “ACAGACGAAGGAGCCGCAAAGACGTTATTAATGGATGAATAATCCTTCAATATAAATATCTCTCACTTATTTAAA”: under setting [1], the “cleaved RNA product abundance” value was found to be 0.23.

As to “ACAGACGAAGGAGCCGCAAAGACGTTATTATGGGATGAATAATCCCTCAATATAAATATCTCTCACTTATTTAAA”, the “cleaved RNA product abundance” value under setting [1] worked out at 0.284.

Turning to “ACAGACGAAGGAGCCGCAAAGACGTTCTTAAGGGATGAATAATCCCTCAATATAAATATCTCTCACTTATTTAAA”, the “cleaved RNA product abundance” value under setting [1] was determined as 0.231.

In the case of “ACAGACGAAGGAGCCGCAAAGACGTTTTTAAGGGATGAATAATCCCTCAATATAAATATCTCTCACTTATTTAAA”, under setting [1], the “cleaved RNA product abundance” value is 0.44.

As to “ACAGACGAAGGAGCCGCAAAGACTTTATTAAGGGATGAATAATCCCTCAATATAAATATCTCTCACTTATTTAAA”, the “cleaved RNA product abundance” value under setting [1] amounted to 0.8.

Turning to “ACAGACGAAGGAGCCGCAAAGAGCTTATTAAGGGATGAATAATCCCTCAATATAAATATCTCTCACTTATTTAAA”, the “cleaved RNA product abundance” value under setting [1] turned out to be 0.743.

With “ACAGACGAAGGAGCCGCAAAGAGGTAATTAAGGGATGAATAATCCCTCAATATAAATATCTCTCACTTATTTAAA”, the “cleaved RNA product abundance” value under setting [1] came out at 0.176.

“ACAGACGAAGGAGCCGCAAAGAGGTTAATAAGGGATGAATAATCCCTCAATATAAATATCTCTCACTTATTTAAA”: the “cleaved RNA product abundance” value under setting [1] was found to be 0.363.

“ACAGACGAAGGAGCCGCAAAGAGGTTATTAAAGGATGAATAATCCCTCAATATAAATATCTCTCACTTATTTAAA”: under setting [2], the “cleaved RNA product abundance” value is 0.166.

In the case of “ACAGACGAAGGAGCCGCAAAGAGGTTATTAAGAGATGAATAATCCCTCAATATAAATATCTCTCACTTATTTAAA”, the “cleaved RNA product abundance” value under setting [1] was 0.126.

On to “ACAGACGAAGGAGCCGCAAAGAGGTTATTAAGCGATGAATAATCCCTCAATATAAATATCTCTCACTTATTTAAA”, for which, under setting [1], the “cleaved RNA product abundance” value was 0.0624.

As for “ACAGACGAAGGAGCCGCAAAGAGGTTATTAAGGCATGAATAATCCCTCAATATAAATATCTCTCACTTATTTAAA”, the “cleaved RNA product abundance” value under setting [2] was determined as 0.0794.

With “ACAGACGAAGGAGCCGCAAAGAGGTTATTAAGGGATAAATAATCCCTCAATATAAATATCTCTCACTTATTTAAA”, under setting [1], the “cleaved RNA product abundance” value is 0.62.

As to “ACAGACGAAGGAGCCGCAAAGAGGTTATTAAGGGATGAATAATCACTCAATATAAATATCTCTCACTTATTTAAA”, the “cleaved RNA product abundance” value under setting [1] is 0.102.

For the sequence “ACAGACGAAGGAGCCGCAAAGAGGTTATTAAGGGATGAATAATCCATCAATATAAATATCTCTCACTTATTTAAA”, the “cleaved RNA product abundance” value under setting [2] came to 0.176.

Turning to “ACAGACGAAGGAGCCGCAAAGAGGTTATTAAGGGATGAATAATCCCTAAATATAAATATCTCTCACTTATTTAAA”, under setting [1], the “cleaved RNA product abundance” value was 0.386.

Consider “ACAGACGAAGGAGCCGCAAAGAGGTTATTAAGGGATGAATAATCCCTCAATATAAATATCTCTCACTTATTTAAA”, for which the “cleaved RNA product abundance” value under setting [2] worked out at 0.814; the “cleaved RNA product abundance” value under setting [1] stood at 0.754; the “cleaved RNA product abundance” value (experiment (reporter, strain, medium): exp 6: tetM reporter, strain 168) came out at 0.737.

In the case of “ACAGACGAAGGAGCCGCAAAGAGGTTATTAAGGGATGAATAATCCGTCAATATAAATATCTCTCACTTATTTAAA”, the “cleaved RNA product abundance” value under setting [1] amounted to 0.296.

Turning to “ACAGACGAAGGAGCCGCAAAGAGGTTATTAAGGTATGAATAATCCCTCAATATAAATATCTCTCACTTATTTAAA”, under setting [1], the “cleaved RNA product abundance” value is 0.1.

For the sequence “ACAGACGAAGGAGCCGCAAAGAGGTTATTAAGTGATGAATAATCCCTCAATATAAATATCTCTCACTTATTTAAA”, the “cleaved RNA product abundance” value under setting [1] turned out to be 0.0848.

For the sequence “ACAGACGAAGGAGCCGCAAAGAGGTTATTAATGGATGAATAATCCCTCAATATAAATATCTCTCACTTATTTAAA”, the “cleaved RNA product abundance” value came out at 0.13 under setting [2] and 0.0978 under setting [1].

In the case of “ACAGACGAAGGAGCCGCAAAGAGGTTATTTAGGGATGAATAATCCCTCAATATAAATATCTCTCACTTATTTAAA”, under setting [1], the “cleaved RNA product abundance” value is 0.527.

Take “ACAGACGAAGGAGCCGCAAAGATATTATTAAGGGATGAATAATCCCTCAATATAAATATCTCTCACTTATTTAAA”: the “cleaved RNA product abundance” value was determined as 0.93 under setting [2] and 0.459 under setting [1].

With “ACAGACGAAGGAGCCGCAAAGATGATATTAAGGGATGAATAATCCCTCAATATAAATATCTCTCACTTATTTAAA”, the “cleaved RNA product abundance” value is, setting by setting: under setting [2], 0.664; under setting [1], 0.676.

“ACAGACGAAGGAGCCGCAAAGATGCTATTAAGGGATGAATAATCCCTCAATATAAATATCTCTCACTTATTTAAA”: under setting [1], the “cleaved RNA product abundance” value was 0.848.

Take “ACAGACGAAGGAGCCGCAAAGATGTAATTAAGGGATGAATAATCCCTCAATATAAATATCTCTCACTTATTTAAA”: the “cleaved RNA product abundance” value under setting [1] was 0.427.

In the case of “ACAGACGAAGGAGCCGCAAAGATGTCATTAAGGGATGAATAATCCCTCAATATAAATATCTCTCACTTATTTAAA”, the “cleaved RNA product abundance” value under setting [1] worked out at 0.205.

“ACAGACGAAGGAGCCGCAAAGATGTTAATAAGGGATGAATAATCCCTCAATATAAATATCTCTCACTTATTTAAA”: the “cleaved RNA product abundance” value reads like this: under setting [2], 0.237; under setting [1], 0.311.

As for “ACAGACGAAGGAGCCGCAAAGATGTTATAAAGGGATGAATAATCCCTCAATATAAATATCTCTCACTTATTTAAA”, the “cleaved RNA product abundance” value is, setting by setting: under setting [2], 0.259; under setting [1], 0.441.

For the sequence “ACAGACGAAGGAGCCGCAAAGATGTTATCAAGGGATGAATAATCCCTCAATATAAATATCTCTCACTTATTTAAA”, the “cleaved RNA product abundance” value runs as follows: under setting [2], 0.239; under setting [1], 0.328.

“ACAGACGAAGGAGCCGCAAAGATGTTATTAAAGGATGAATAATCCCTCAATATAAATATCTCTCACTTATTTAAA”: the “cleaved RNA product abundance” value under setting [1] is 0.129.

In the case of “ACAGACGAAGGAGCCGCAAAGATGTTATTAACGGATGAATAATCCCTCAATATAAATATCTCTCACTTATTTAAA”, the “cleaved RNA product abundance” value reads like this: under setting [2], 0.104; under setting [1], 0.151.

As to “ACAGACGAAGGAGCCGCAAAGATGTTATTAAGAGATGAATAATCCCTCAATATAAATATCTCTCACTTATTTAAA”, the “cleaved RNA product abundance” value under setting [1] was found to be 0.156.

For the sequence “ACAGACGAAGGAGCCGCAAAGATGTTATTAAGCGATGAATAATCCCTCAATATAAATATCTCTCACTTATTTAAA”, the “cleaved RNA product abundance” value is, setting by setting: under setting [2], 0.0873; under setting [1], 0.11.

As to “ACAGACGAAGGAGCCGCAAAGATGTTATTAAGGAATGAATAATCCCTCAATATAAATATCTCTCACTTATTTAAA”, the “cleaved RNA product abundance” value is, setting by setting: under setting [2], 0.102; under setting [1], 0.145.

Consider “ACAGACGAAGGAGCCGCAAAGATGTTATTAAGGCATGAATAATCCCTCAATATAAATATCTCTCACTTATTTAAA”, for which the “cleaved RNA product abundance” value is, setting by setting: under setting [2], 0.108; under setting [1], 0.104.

“ACAGACGAAGGAGCCGCAAAGATGTTATTAAGGGAAGAATAATCCCTCAATATAAATATCTCTCACTTATTTAAA”: the “cleaved RNA product abundance” value under setting [1] came to 0.51.

As to “ACAGACGAAGGAGCCGCAAAGATGTTATTAAGGGATAAATAATCCCTCAATATAAATATCTCTCACTTATTTAAA”, the “cleaved RNA product abundance” value under setting [1] was 0.906.

On to “ACAGACGAAGGAGCCGCAAAGATGTTATTAAGGGATCAATAATCCCTCAATATAAATATCTCTCACTTATTTAAA”, for which the “cleaved RNA product abundance” value reads like this: under setting [2], 0.708; under setting [1], 1.08.

Take “ACAGACGAAGGAGCCGCAAAGATGTTATTAAGGGATGAAAAATCCCTCAATATAAATATCTCTCACTTATTTAAA”: the “cleaved RNA product abundance” value runs as follows: under setting [2], 0.583; under setting [1], 0.733.

Turning to “ACAGACGAAGGAGCCGCAAAGATGTTATTAAGGGATGAATAAACCCTCAATATAAATATCTCTCACTTATTTAAA”, the “cleaved RNA product abundance” value under setting [1] turned out to be 0.275.

As for “ACAGACGAAGGAGCCGCAAAGATGTTATTAAGGGATGAATAATACCTCAATATAAATATCTCTCACTTATTTAAA”, the “cleaved RNA product abundance” value worked out at 0.128 under setting [2] and 0.142 under setting [1].

Take “ACAGACGAAGGAGCCGCAAAGATGTTATTAAGGGATGAATAATCACTCAATATAAATATCTCTCACTTATTTAAA”: the “cleaved RNA product abundance” value under setting [1] worked out at 0.181.

In the case of “ACAGACGAAGGAGCCGCAAAGATGTTATTAAGGGATGAATAATCCATCAATATAAATATCTCTCACTTATTTAAA”, the “cleaved RNA product abundance” value by setting is: under setting [2], 0.171; under setting [1], 0.311.

In the case of “ACAGACGAAGGAGCCGCAAAGATGTTATTAAGGGATGAATAATCCCACAATATAAATATCTCTCACTTATTTAAA”, the “cleaved RNA product abundance” value under setting [2] worked out at 0.227 and the “cleaved RNA product abundance” value under setting [1] was 0.248.

For “ACAGACGAAGGAGCCGCAAAGATGTTATTAAGGGATGAATAATCCCTAAATATAAATATCTCTCACTTATTTAAA”, under setting [1], the “cleaved RNA product abundance” value came out at 1.11.

Take “ACAGACGAAGGAGCCGCAAAGATGTTATTAAGGGATGAATAATCCCTCAAAATAAATATCTCTCACTTATTTAAA”: under setting [1], the “cleaved RNA product abundance” value was 0.502.

As to “ACAGACGAAGGAGCCGCAAAGATGTTATTAAGGGATGAATAATCCCTCAACATAAATATCTCTCACTTATTTAAA”, the “cleaved RNA product abundance” value under setting [1] amounted to 0.223.

“ACAGACGAAGGAGCCGCAAAGATGTTATTAAGGGATGAATAATCCCTCAATATAAATAACTCTCACTTATTTAAA”: the “cleaved RNA product abundance” value was 0.767 under setting [2] and 0.897 under setting [1].
